Measurements from article PMC5435683, “Crystal structure of TAZ-TEAD complex reveals a distinct interaction mode from that of YAP-TEAD complex” (Scientific Reports, 2017).
Substitutions are numbered along the chain they refer to.

What was measured:
[1] = molecular target: the molecule itself; test: crystal structure; mTAZ (25-57) with mTEAD4 (210-427), co-expressed and co-purified; hanging drops, 6% PEG 10000, 0.05 M magnesium acetate, 0.1 M tri-sodium citrate pH 5.2, 20 °C; 2.9 Å; 4 TAZ and 4 TEAD in the asymmetric unit, two binding modes (1:1 and 2:2)
[2] = molecular target: T1, mTEAD4 (residues 210-427) Cys360Ser (mouse, UniProt Q62296 210-427, Cys360 replaced with serine); test: SEC; analytical gel filtration, Superdex 75 10/300 GL; control, cross-linked, and cross-linking reversed with 25 mM DTT for 1 hour at 25 °C; conditions: both partners purified
T1 construct: TEAD4, mouse, residues 210-427, surface-exposed Cys360 replaced with serine; also called TEAD Cys360 to serine; source: E. coli BL21 (DE3), co-expressed with mTAZ (25-57) Asn33Cys, purified as a complex as the wild type

[3] = molecular target: the molecule itself; test: cross-linking + SEC-MALS; specific disulfide cross-linking of TAZ Asn33Cys with 1.5 mM CuCl2 and 5 mM phenanthroline, 1 hour at 25 °C, stopped with 50 mM EDTA; Superdex 75 5/150 GL, 20 mM Tris pH 8, 150 mM sodium chloride

T1 sequence (Q62296 210-427 C360S): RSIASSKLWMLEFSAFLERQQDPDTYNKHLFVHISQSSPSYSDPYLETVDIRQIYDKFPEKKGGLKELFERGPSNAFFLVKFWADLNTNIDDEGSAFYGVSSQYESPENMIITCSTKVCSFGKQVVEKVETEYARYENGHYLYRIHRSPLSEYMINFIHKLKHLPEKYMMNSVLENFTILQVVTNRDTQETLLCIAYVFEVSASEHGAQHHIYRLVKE

B1: mTAZ (residues 25-57) (domain or fragment, mouse, UniProt Q9EPK5 25-57, looked up)
chain: DTDLEALFNSVMNPKPSSWRKKILPESFFKEPD
notes: TAZ (WWTR1), mouse, residues 25-57 (helix α1, 13-residue loop, helix α2); Cloned with mTEAD4 in a modified pETDuet-1 vector; also called mouse TAZ; not shown: His6, N-terminal, cleaved
- binding result [1]: binds

B2: mTAZ (residues 25-57) Asn33Cys (domain or fragment, mouse, UniProt Q9EPK5 25-57, looked up)
chain: B1 chain with N9C
notes: TAZ (WWTR1), mouse, residues 25-57, Asn33 replaced with cysteine for disulfide cross-linking; In the cross-linked sample Cys33 of two copies is joined by a disulfide (copper phenanthroline); in the control and DTT samples it is not; also called TAZ Asn33Cys; source: E. coli BL21 (DE3), co-expressed with mTEAD4 (210-427) Cys360Ser, purified as a complex as the wild type; not shown: His6, …
- stoichiometry N [2]: 1
- stoichiometry N [3]: 2
